Reference: US20080057063A1
Values belong to the substance of their own block, whether it stands above or below them.

Assays:
[1] = molecular target: α4β1 integrin (on J6.77 cells) (UniProt P13612); assay: cell-based or functional assay
[2] = molecular target: mouse αVβ6 on cells (mouse) (UniProt P43406); assay: FACS, K562 cells expressing mouse αVβ6 (parental 23)
[3] = molecular target: cynomolgus αVβ6 on cells (cynomolgus); assay: FACS, K562 cells expressing cynomolgus αVβ6 (parental 23)
[4] = molecular target: human αV on parental A375M cells, which express αVβ3 and αVβ5, but not αVβ6 (human) (UniProt P06756); assay: cell-based or functional assay
Chain of human αV on parental A375M cells, which express αVβ3 and αVβ5, but not αVβ6 (human) (P06756 31-1048 A375M): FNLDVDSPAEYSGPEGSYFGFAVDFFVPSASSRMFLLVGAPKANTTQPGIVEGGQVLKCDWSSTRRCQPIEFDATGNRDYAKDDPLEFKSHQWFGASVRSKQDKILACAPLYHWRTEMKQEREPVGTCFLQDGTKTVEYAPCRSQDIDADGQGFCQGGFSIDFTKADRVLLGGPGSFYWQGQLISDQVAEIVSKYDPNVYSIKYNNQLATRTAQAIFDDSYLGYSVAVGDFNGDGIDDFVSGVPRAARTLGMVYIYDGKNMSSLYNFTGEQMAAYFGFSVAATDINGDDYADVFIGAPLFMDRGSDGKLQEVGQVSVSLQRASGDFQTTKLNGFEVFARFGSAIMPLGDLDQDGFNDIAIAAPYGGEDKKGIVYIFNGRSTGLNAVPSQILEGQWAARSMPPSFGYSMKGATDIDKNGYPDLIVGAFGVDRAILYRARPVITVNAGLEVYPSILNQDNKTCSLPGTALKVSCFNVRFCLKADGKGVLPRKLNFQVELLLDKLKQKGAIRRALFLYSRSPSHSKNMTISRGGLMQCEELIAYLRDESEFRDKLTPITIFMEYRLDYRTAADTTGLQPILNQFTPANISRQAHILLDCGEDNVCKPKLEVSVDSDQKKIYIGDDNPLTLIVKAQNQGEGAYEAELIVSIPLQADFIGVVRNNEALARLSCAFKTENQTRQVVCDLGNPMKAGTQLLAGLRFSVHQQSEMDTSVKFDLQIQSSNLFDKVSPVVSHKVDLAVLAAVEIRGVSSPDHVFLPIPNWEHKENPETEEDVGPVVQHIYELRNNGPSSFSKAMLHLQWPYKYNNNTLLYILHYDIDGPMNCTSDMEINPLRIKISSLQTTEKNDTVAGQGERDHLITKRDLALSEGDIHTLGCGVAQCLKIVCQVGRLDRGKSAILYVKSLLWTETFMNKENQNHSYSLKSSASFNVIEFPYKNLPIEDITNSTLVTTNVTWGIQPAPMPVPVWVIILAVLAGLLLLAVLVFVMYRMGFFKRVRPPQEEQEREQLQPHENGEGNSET

[5] = molecular target: cynomolgus αVβ6 on cells (cynomolgus); assay: FACS, HEK-293 transfected with cynomolgus αV and β6, day 1
[6] = molecular target: cynomolgus αVβ6 on cells (cynomolgus); assay: FACS, HEK-293 transfected with cynomolgus αV and β6, day 2
[7] = molecular target: human αV on parental A375M cells, which express αVβ3 and αVβ5, but not αVβ6 (human) (UniProt P06756); assay: FACS, parental A375M cells, day 2
[8] = molecular target: human αV on parental A375M cells, which express αVβ3 and αVβ5, but not αVβ6 (human) (UniProt P06756); assay: FACS, parental A375M cells, day 1
[9] = molecular target: α5β1 integrin (on K562 cells) (UniProt P08648); assay: cell-based or functional assay
[10] = molecular target: cynomolgus αVβ6 on cells (cynomolgus); assay: FACS, K562 cells expressing cynomolgus αVβ6 (parental 12)
[11] = molecular target: mouse αVβ6 on cells (mouse) (UniProt P43406); assay: FACS, K562 cells expressing mouse αVβ6 (parental 12)
[12] = molecular target: mouse αVβ6 on cells (mouse) (UniProt P43406); assay: FACS, HEK-293 transfected with mouse αVβ6
[13] = molecular target: human αVβ6 integrin on cells (human) (UniProt P06756); assay: FMAT, HEK 293 cells overexpressing αVβ6, 1 ug/mL
Chain of human αVβ6 integrin on cells (human) (P06756 31-1048, chain 1 of 2): as the sequence (P06756 31-1048 A375M) above, with M345A counted along it
Chain of human αVβ6 integrin on cells (human) (P18564 22-788, chain 2 of 2, further chain): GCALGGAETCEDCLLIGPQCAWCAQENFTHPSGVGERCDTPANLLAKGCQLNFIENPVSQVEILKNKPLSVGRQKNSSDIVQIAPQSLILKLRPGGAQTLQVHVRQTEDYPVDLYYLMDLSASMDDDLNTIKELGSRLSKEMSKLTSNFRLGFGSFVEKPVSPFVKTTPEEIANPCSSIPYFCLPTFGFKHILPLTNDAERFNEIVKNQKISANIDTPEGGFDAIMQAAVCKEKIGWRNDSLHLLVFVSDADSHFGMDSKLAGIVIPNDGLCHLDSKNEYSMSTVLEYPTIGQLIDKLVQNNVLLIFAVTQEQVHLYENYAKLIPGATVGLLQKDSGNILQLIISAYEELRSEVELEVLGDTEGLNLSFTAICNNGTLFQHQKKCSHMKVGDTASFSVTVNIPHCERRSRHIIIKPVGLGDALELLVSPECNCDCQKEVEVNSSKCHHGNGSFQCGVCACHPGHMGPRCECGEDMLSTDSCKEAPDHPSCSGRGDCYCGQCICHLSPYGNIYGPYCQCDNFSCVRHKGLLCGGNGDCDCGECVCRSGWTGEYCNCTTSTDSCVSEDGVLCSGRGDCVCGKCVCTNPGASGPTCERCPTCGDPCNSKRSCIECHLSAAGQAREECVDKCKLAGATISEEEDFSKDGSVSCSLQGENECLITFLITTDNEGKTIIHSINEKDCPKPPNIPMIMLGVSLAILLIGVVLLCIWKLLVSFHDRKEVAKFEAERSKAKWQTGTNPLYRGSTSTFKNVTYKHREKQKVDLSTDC

[14] = molecular target: cynomolgus β6 (HEK-293 cells transfected with cynomolgus β6 alone) (cynomolgus); assay: FACS, HEK-293 transfected with cynomolgus β6
[15] = molecular target: human αVβ6 integrin on cells (human) (UniProt P06756); assay: cell-based or functional assay
[16] = molecular target: cynomolgus αV (HEK-293 cells transfected with cynomolgus αV alone) (cynomolgus); assay: FACS, HEK-293 transfected with cynomolgus αV
[17] = molecular target: mouse αV (HEK-293 cells transfected with mouse αV alone) (mouse) (UniProt P43406); assay: FACS, HEK-293 transfected with mouse αV
Chain of mouse αV (HEK-293 cells transfected with mouse αV alone) (mouse) (P43406 31-1044): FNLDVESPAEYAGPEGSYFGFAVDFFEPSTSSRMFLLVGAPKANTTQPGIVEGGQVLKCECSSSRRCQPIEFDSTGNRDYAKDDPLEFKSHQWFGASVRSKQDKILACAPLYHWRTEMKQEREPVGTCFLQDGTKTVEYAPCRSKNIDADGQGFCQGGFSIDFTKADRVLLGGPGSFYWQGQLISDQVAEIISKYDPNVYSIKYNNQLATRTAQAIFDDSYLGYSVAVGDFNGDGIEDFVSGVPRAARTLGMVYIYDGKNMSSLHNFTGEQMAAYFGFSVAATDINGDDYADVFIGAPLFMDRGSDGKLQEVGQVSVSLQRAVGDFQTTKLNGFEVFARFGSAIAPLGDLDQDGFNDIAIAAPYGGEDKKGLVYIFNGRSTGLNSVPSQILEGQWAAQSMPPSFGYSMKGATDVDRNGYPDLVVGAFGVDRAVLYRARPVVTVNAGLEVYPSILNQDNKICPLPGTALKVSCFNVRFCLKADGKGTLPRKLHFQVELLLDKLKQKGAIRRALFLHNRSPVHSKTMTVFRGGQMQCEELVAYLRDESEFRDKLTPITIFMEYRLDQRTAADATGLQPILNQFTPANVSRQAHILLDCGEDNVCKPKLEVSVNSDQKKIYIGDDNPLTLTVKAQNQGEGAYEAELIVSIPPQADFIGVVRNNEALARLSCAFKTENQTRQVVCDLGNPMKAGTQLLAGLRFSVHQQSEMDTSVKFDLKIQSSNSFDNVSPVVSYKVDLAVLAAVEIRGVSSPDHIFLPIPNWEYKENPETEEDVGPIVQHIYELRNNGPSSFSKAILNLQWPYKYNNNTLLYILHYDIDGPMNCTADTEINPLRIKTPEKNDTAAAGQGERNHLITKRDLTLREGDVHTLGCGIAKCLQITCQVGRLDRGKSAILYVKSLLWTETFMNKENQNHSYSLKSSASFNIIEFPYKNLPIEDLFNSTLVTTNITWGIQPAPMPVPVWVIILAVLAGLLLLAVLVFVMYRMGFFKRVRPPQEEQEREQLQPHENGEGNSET

[18] = molecular target: cynomolgus αVβ6 on cells (cynomolgus); assay: FACS, K562 cells expressing cynomolgus αVβ6 (parental 15)
[19] = molecular target: mouse β6 (HEK-293 cells transfected with mouse β6 alone) (mouse) (UniProt Q9Z0T9); assay: FACS, HEK-293 transfected with mouse β6
Chain of mouse β6 (HEK-293 cells transfected with mouse β6 alone) (mouse) (Q9Z0T9 22-787): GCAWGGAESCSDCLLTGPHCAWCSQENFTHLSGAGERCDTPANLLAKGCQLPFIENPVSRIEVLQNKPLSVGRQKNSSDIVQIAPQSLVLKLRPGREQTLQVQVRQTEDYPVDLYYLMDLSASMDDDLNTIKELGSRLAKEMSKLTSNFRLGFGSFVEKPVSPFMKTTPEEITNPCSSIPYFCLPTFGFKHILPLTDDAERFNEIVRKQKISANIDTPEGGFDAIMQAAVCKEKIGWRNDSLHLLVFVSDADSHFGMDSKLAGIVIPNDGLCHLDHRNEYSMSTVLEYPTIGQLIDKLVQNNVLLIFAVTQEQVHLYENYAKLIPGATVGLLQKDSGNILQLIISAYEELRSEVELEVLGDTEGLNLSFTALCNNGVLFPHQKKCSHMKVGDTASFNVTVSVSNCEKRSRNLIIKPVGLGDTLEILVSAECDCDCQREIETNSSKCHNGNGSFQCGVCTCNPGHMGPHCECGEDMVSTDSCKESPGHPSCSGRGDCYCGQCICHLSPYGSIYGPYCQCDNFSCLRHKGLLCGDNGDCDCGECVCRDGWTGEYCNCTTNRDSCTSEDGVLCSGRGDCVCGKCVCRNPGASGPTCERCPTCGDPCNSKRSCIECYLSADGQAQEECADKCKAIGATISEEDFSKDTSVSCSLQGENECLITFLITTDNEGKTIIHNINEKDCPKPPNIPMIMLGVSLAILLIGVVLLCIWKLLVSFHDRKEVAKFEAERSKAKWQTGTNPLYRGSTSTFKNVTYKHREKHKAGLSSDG

[20] = molecular target: mouse αVβ6 on cells (mouse) (UniProt P43406); assay: FACS, K562 cells expressing mouse αVβ6 (parental 15)
[21] = molecular target: cynomolgus αVβ6 on cells (cynomolgus); assay: FACS, HEK-293 transfected with cynomolgus αVβ6
soluble αVβ6 (human) = soluble αVβ6 (human) (UniProt P06756); assay: ELISA on coated soluble αVβ6, 1 ug/mL
[22] = molecular target: cynomolgus αVβ6 on cells (cynomolgus); assay: FACS, K562 cells expressing cynomolgus αVβ6 (parental 46)
[23] = molecular target: mouse αVβ6 on cells (mouse) (UniProt P43406); assay: FACS, K562 cells expressing mouse αVβ6 (parental 46)

Chain of mouse αVβ6 on cells (mouse) (P43406 31-1044, chain 1 of 2): as the sequence (P43406 31-1044) above
Chain of mouse αVβ6 on cells (mouse) (Q9Z0T9 22-787, chain 2 of 2, further chain): as the sequence (Q9Z0T9 22-787) above

Substance: Human IgG2 (antibody)
Percent Inhibition (J6.77 adhesion to CS-1 peptide of fibronectin, 5 ug/ml) [1]: 13%

Substance: Mouse IgG2a (antibody)
Geometric Mean Shift [2]: 36 | Geometric Mean Shift [3]: 25

Substance: Mouse IgG Control (antibody)
Percent Inhibition (A375M adhesion to osteopontin peptide, 5 µg/ml) [4]: 5%

Substance: Mouse IgG1 (antibody)
Geometric Mean Shift [10]: 13 | Geometric Mean Shift [11]: 20

Substance: Human IgG1 (antibody)
percent of cells shifted [12]: 1% | percent of cells shifted [14]: 1% | Percent Inhibition (J6.77 adhesion to CS-1 peptide of fibronectin, 5 ug/ml) [1]: 26% | percent of cells shifted [16]: 1% | percent of cells shifted [17]: 1% | Geometric Mean Shift [22]: 54 | percent of cells shifted [19]: 0% | Geometric Mean Shift [23]: 108 | percent of cells shifted [21]: 0%

The next lines start with the values.

Percent Inhibition (J6.77 adhesion to CS-1 peptide of fibronectin, 5 ug/ml) [1]: 15%
Substance: Human IgG4 (antibody)

% Cells Shifted [5]: 1% | GeoMean [5]: 9.54 | % Cells Shifted [6]: 0% | GeoMean [6]: 7.39 | % Cells Shifted [7]: 1% | GeoMean [7]: 7.23 | % Cells Shifted [8]: 5% | GeoMean [8]: 1.66 | % Inhibition (K562 adhesion to fibronectin) [9]: -12% | Percent Inhibition (K562 adhesion to FN9-10 peptide of fibronectin, 5 µg/ml) [9]: 11% | Percent Inhibition (A375M adhesion to osteopontin peptide, 5 µg/ml) [4]: 3%
Substance: Human IgG Isotype Control (antibody)

% Cells Shifted [5]: 1% | GeoMean [5]: 8.85 | % Cells Shifted [6]: 0% | GeoMean [6]: 11.2 | % Cells Shifted [7]: 3% | GeoMean [7]: 11.2 | % Cells Shifted [8]: 4% | GeoMean [8]: 1.67
Substance: Mouse IgG2 with Murine Secondary Antibody

percent of cells shifted [12]: 45% | FMAT Count [13]: 67 | FMAT FL1 [13]: 659 | FMAT FL1 × Count [13]: 44200 | percent of cells shifted [14]: 5% | % Cells Shifted [5]: 42% | GeoMean [5]: 55.5 | % Cells Shifted [6]: 11% | GeoMean [6]: 28.1 | % Cells Shifted [7]: 5% | GeoMean [7]: 15.4 | % Cells Shifted [8]: 30% | GeoMean [8]: 2.03 | Estimated IC50, n = 1 (HT29 adhesion to TGFβLAP) [15]: 226 ng/mL | Estimated IC50, n = 2 (HT29 adhesion to TGFβLAP) [15]: 185 ng/mL | Estimated IC50, n = 3 (HT29 adhesion to TGFβLAP) [15]: 286 ng/mL | percent of cells shifted [16]: 0% | percent of cells shifted [17]: 1% | Geometric Mean Shift [18]: 84 | percent of cells shifted [19]: 11% | Geometric Mean Shift [20]: 122 | percent of cells shifted [21]: 20% | ELISA OD (soluble αVβ6 (human)): 6
Substance: murine αVβ6 antibody (Cat#MAB2077z, Chemicon)
